Laboratory results published in patent US8221993, “Methods of detecting methyl transferase activity and methods of screening for methyl transferase activity modulators” (Onco Therapy Science, Inc.).

T1: ZNFN3A1 (SMYD3) (Homo sapiens, UniProt Q9H7B4 SEQ:1-428)
T1 chain: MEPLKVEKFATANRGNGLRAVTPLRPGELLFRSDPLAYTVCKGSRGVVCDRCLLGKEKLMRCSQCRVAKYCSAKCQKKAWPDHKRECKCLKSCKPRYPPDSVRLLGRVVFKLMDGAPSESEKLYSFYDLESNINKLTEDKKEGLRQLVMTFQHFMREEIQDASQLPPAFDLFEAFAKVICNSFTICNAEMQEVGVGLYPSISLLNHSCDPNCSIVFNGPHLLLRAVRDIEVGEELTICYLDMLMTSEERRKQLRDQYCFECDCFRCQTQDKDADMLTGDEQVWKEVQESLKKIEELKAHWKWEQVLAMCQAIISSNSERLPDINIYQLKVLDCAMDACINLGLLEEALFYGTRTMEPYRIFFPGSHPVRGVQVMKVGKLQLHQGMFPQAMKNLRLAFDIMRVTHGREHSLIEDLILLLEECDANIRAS

B1: ZBE2 (Nkx2.8 ZNFN3A1-binding element) (dsDNA)
DNA 1: TTACGCCCTCCTGAAACTTGTCATCCTGAATCTTAGAGGGGCCC
DNA 2: GGGCCCCTCTAAGATTCAGGATGACAAGTTTCAGGAGGGCGTAA
B2: wtTBM (Tcf4-binding motif) (dsDNA)
DNA 1: CCCTTTGATCTTACC
DNA 2: GGTAAGATCAAAGGG

Tests used:
[1] = molecular target: GST (UniProt P08515 P08515:1-218); assay: GST control
[2] = molecular target: T1, ZNFN3A1 (SMYD3); assay: in vitro binding assay; inhibited by cold competitor DNA; details: tags: GST fusion, E. coli
[3] = molecular target: Tcf4 wild-type (UniProt Q9NQB0 Q9NQB0:1-619); assay: positive control; details: tags: GST fusion
[4] = molecular target: T1, ZNFN3A1 (SMYD3); assay: specificity control; details: tags: GST fusion, E. coli

Chain of GST (P08515 whole entry, the tested form may be a part, one chain of several): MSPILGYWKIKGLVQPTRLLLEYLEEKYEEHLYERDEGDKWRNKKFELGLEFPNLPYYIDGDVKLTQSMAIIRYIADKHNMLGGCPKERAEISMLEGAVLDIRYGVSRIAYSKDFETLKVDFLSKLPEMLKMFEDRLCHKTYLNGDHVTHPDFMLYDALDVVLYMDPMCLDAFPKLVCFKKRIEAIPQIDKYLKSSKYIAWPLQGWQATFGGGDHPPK
Chain of Tcf4 wild-type (Q9NQB0 whole entry, the tested form may be a part, one chain of several): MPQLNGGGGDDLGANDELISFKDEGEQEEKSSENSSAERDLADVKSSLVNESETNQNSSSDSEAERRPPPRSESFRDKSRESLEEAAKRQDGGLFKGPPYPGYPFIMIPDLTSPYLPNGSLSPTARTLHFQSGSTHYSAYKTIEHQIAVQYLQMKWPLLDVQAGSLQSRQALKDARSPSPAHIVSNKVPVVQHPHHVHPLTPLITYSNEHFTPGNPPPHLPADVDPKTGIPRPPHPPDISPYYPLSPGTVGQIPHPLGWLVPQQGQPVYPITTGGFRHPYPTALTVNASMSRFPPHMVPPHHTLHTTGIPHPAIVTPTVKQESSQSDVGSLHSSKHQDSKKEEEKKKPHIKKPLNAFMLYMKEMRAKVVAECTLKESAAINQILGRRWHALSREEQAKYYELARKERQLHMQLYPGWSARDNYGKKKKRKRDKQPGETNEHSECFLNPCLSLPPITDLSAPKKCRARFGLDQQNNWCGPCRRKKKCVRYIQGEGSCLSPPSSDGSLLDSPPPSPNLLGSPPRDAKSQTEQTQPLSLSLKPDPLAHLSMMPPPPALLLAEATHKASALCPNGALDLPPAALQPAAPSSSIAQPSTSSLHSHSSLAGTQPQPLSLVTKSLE

Row | Binder | binding result [1] | binding result [2] | binding result [3] | binding result [4]
1 | B1 | no binding | binds | – | –
2 | B2 | no binding | – | binds | no binding
